Measurements as given in patent US20230321261A1, “AXL-SPECIFIC ANTIBODY-DRUG CONJUGATES FOR CANCER TREATMENT” (GENMAB A/S, priority 2016, published 2023).

Assays:
[1] = target: T1, human-mouse chimeric AXL mutants (Homo sapiens, UniProt P30530, A273L/A287V/A310S/E275K/E281D/G297E/H300L/L233V/M269V/N230H/P276S/P329T/Q227R/Q272W/R229H/S285L/S298K/S319P/T259N/T312S/V309I); assay: AXL domain specificity using human-mouse AXL chimeric molecules (flow cytometry); type: binding; details: 1 µg/mL antibody
T1 construct: constructs for expression of various full-length AXL variants were generated; expressed in transfected cells; host or cells: HEK293F

[2] = target: T2, Gas6 binding to AXL on A431 cells (Homo sapiens, UniProt P30530); assay: Gas6 binding to A431 cells pre-incubated with AXL antibodies; details: pre-incubation with 10 µg/mL antibody; control antibody b12
T2 construct: endogenous in cells; host or cells: A431
Method: Alternatively, A431 cells were pre-incubated with 10 µg/mL AXL antibodies (15 minutes, 4° C.) to assess if the AXL ligand Gas6 could still bind in presence of AXL antibodies. […] After washing three times in PBS/0.1% BSA/0.02% azide, cells were incubated with mouse anti-Gas6 IgG2a (R&D Systems; cat no. MAB885) at 4° C. for 30 min. After washing three times in PBS/0.1% BSA/0.02% azide, cells were incubated with FITC-labelled goat anti-mouse IgG (Dako, Heverlee, Belgium; cat no. F049702) at 4° C. for 30 min in the dark. Next, cells were washed twice in PBS/0.1% BSA/0.02% azide, resuspended in 120 µL PBS/0.1% BSA/0.02% azide and analyzed on a FACS Cantoll (BD Biosciences).
(§1) Binding curves were analyzed using non-linear regression (sigmoidal dose-response with variable slope) using GraphPad Prism V5.04 software (GraphPad Software, San Diego, CA, USA).
Therefore, binding of Gas6 to A431 cells that had been pre-incubated with 10 µg/mL AXL antibodies was tested as described in Example 2.

[3] = target: T3, human AXL with a cynomolgus monkey extracellular domain (ECD) (Homo sapiens, UniProt P30530, P441T/S191N/S285L/T105A/T112A/T125N/T443A); assay: Flow cytometry binding to transfected HEK293T cells; details: at least 3 experiments
T3 construct: aa 1-447); human AXL transmembrane and intracellular part (the remainder of human AXL after the ECD; expressed in transfected cells; host or cells: HEK293T

AXL on A431 cells = target: T4, AXL on A431 cells (Homo sapiens, UniProt P30530); assay: Antibody binding to A431 cells with or without Gas6 pre-incubation; details: for Antibody binding to A431 cells: EC50 in presence of Gas6 (µg/mL) mean (s.d.) / Antibody binding to A431 cells: Maximal binding in presence of Gas6 (% of binding in absence of Gas6) mean (s.d.): pre-incubation with 10 µg/mL Gas6; for Antibody binding to A431 cells: EC50 w/o Gas6 (µg/mL) mean (s.d.): without Gas6 pre-incubation
T4 construct: AXL-positive A431 cells were incubated; endogenous in cells; host or cells: A431

[4] = target: T5, AXLECDHis (extracellular domain of human AXL) (Homo sapiens, UniProt P30530); assay: Binding affinity by Bio-Layer Interferometry (ForteBio OctetRED384); details: 1:1 model, 30° C.
T5 construct: the extracellular domain (ECD) of human AXL (aa 1-447) with a C-terminal His tag (AXLECDHis); His tag (C); made in house; host or cells: HEK-293F

full length human AXL = target: T6, full length human AXL (Homo sapiens, UniProt P30530); assay: Flow cytometry binding to transfected HEK293T cells; details: at least 3 experiments
T6 construct: expression constructs for full length human AXL; expressed in transfected cells; host or cells: HEK293T
Method: HEK293T cells were transiently transfected with expression constructs for full length human AXL, human AXL with a cynomolgus monkey extracellular domain (ECD) or human AXL with a mouse ECD (see Example 1). Binding of HuMab-AXL antibodies to these cells was evaluated by flow cytometry. Transfected HEK293 cells were incubated with serial dilutions of AXL-antibodies (final concentration range 0.0024-10 µg/mL) for 30 minutes at 4° C. […] Next, cells were washed twice in PBS/0.1% BSA/0.02% azide, resuspended in 120 µL PBS/0.1% BSA/0.02% azide and analyzed on a FACS Cantoll (BD Biosciences).
as §1

[5] = system: LCLC-103H xenograft tumors; assay: LCLC-103H xenograft model; type: in vivo, SCID mice; details: 3 mg/kg (Example 13, FIG. 14A)
Method: 5 × 10^6 LCLC-103H (large cell lung carcinoma) tumor cells (obtained from Leibniz-Institut DSMZ-Deutsche Sammlung von Mikroorganismen und Zellkulturen GmbH (DSMZ)) in 200 µL PBS were injected subcutaneously in the right flank of female SCID mice. Starting 14-21 days after tumor cell inoculation, when the average tumor size was >100-200 mm^3 and distinct tumor growth was observed, a single injection with 1 mg/kg (20 µg/mouse) IgG1-AXL-vcMMAE antibodies (as described in Supplementary Example 1) or control (unconjugated IgG1-b12) was given intraperitoneally (100 µL/mouse). Tumor volume was determined at least two times per week. Tumor volumes (mm^3) were calculated from caliper (PLEXX) measurements as: 0.52 × (length) × (width)^2.
(§2) Tumor induction was performed by subcutaneous injection of 5 × 10^6 A431 or LCLC-103H tumor cells (both obtained from Leibniz-Institut - Deutsche Sammlung von Mikroorganismen und Zellkulturen GmbH (DSMZ)) in 200 µL PBS in the right flank of female SCID mice. Treatment was started 14-21 days after tumor cell inoculation, when the average tumor size was >100-200 mm^3 and distinct tumor growth was observed. Mice received a single injection or a total of 4 biweekly intraperitoneal injections with IgG1-AXL-vcMMAE ADCs or control antibody (unconjugated IgG1-b12), as indicated. Tumor volume was determined at least two times per week. Tumor volumes (mm^3) were calculated from caliper (PLEXX) measurements as: 0.52 × (length) × (width)^2.

A431 tumors = assay: A431 xenograft model (high Gas6); type: in vivo, SCID mice; details: 3 mg/kg
Method: as §2

[6] = target: T7, human AXL transiently expressed by HEK-293F cells (Homo sapiens, UniProt P30530); assay: Homogeneous antigen specific screening assay (FMAT); type: binding
T7 construct: TH1021-AXL (HEK-293F cells transiently expressing full length human AXL; produced as described above); expressed in transfected cells; host or cells: HEK-293F

B1: IgG1-AXL-183: AXL-specific human IgG1,κ antibody, VH SEQ ID NO:16, VL SEQ ID NO:18, FN1 domain binding (antibody, listed as Homo sapiens, V domains shown)
VH: QVQLQQWGAGLLKPSETLSLTCAVYGGSFSGYYWSWIRQPPGKGLEWIGEINQSGSTNYNPSLKSRVTISVDTSKNQFSLKLSSVTAADTSVYYCASGNWDHFFDYWGQGTLVTVSS
VL: DIQMTQSPSSVSASVGDRVTITCRASQGISSWLAWYQHKPGKAPKLLIYATSSLQSGVTSRFSGSGSGTDFTLTISSLQPEDFATYYCQQAKSFPWTFGQGTKVEIK
binding to hsAXL-mmFN1 [1]: reduced binding
Gas6 binding to A431 cells: Maximal binding in presence of AXL antibodies (% of binding in presence of control antibody) mean (s.d.) [2]: 115 (8) %
Binding EC50 (µg/mL) cynomolgus AXL Average (s.d.) [3]: 0.309 (0.086) µg/mL
Antibody binding to A431 cells: EC50 in presence of Gas6 (µg/mL) mean (s.d.) (AXL on A431 cells): 1.19 (1.11) µg/mL
Antibody binding to A431 cells: Maximal binding in presence of Gas6 (% of binding in absence of Gas6) mean (s.d.) (AXL on A431 cells): 90 (19) %
Antibody binding to A431 cells: EC50 w/o Gas6 (µg/mL) mean (s.d.) (AXL on A431 cells): 0.69 (0.72) µg/mL
Binding affinity (OCTET) Kdis [4]: 0.00042 s⁻¹
Binding EC50 (µg/mL) human AXL Average (s.d.) (full length human AXL): 0.526 (0.177) µg/mL

B2: IgG1-AXL-183-N52Q: point mutant of IgG1-AXL-183, VH SEQ ID NO:17, VL SEQ ID NO:18 (antibody, listed as Homo sapiens, V domains shown)
VH: QVQLQQWGAGLLKPSETLSLTCAVYGGSFSGYYWSWIRQPPGKGLEWIGEIQQSGSTNYNPSLKSRVTISVDTSKNQFSLKLSSVTAADTSVYYCASGNWDHFFDYWGQGTLVTVSS
VL: DIQMTQSPSSVSASVGDRVTITCRASQGISSWLAWYQHKPGKAPKLLIYATSSLQSGVTSRFSGSGSGTDFTLTISSLQPEDFATYYCQQAKSFPWTFGQGTKVEIK
Binding EC50 (µg/mL) cynomolgus AXL Average (s.d.) [3]: 0.324 (0.121) µg/mL
Binding affinity (OCTET) Kdis [4]: 0.001 s⁻¹
Binding affinity (OCTET) Kon [4]: 42000 M⁻¹ s⁻¹
Binding EC50 (µg/mL) human AXL Average (s.d.) (full length human AXL): 0.350 (0.206) µg/mL

B3: IgG1-AXL-183-vcMMAE (conjugate)
VH: QVQLQQWGAGLLKPSETLSLTCAVYGGSFSGYYWSWIRQPPGKGLEWIGEINQSGSTNYNPSLKSRVTISVDTSKNQFSLKLSSVTAADTSVYYCASGNWDHFFDYWGQGTLVTVSS
VL: DIQMTQSPSSVSASVGDRVTITCRASQGISSWLAWYQHKPGKAPKLLIYATSSLQSGVTSRFSGSGSGTDFTLTISSLQPEDFATYYCQQAKSFPWTFGQGTKVEIK
anti-tumor activity in the LCLC-103H xenograft model [5]: tumor regression
anti-tumor activity in the A431 xenograft model (A431 tumors): growth inhibition

B4: IgG1-AXL-511: AXL-specific human IgG1,κ antibody, VH SEQ ID NO:136, VL SEQ ID NO:140, Ig2 domain binding (antibody, listed as Homo sapiens, V domains shown)
VH: EVQLLESGGGLVQPGGSLRLSCAASGFTFSSYAMNWVRQAPGKGLEWVSGISGSGGHTYHADSVKGRFTISRDNSKNTLYLQMNSLRAEDTAVYYCAKDRYDILTGYYNLLDYWGQGTLVTVSS
VL: DIQMTQSPSSLSASVGDRVTITCRASQGISSWLAWYQQKPEEAPKSLIYAASSLQSGVPSRFSGSGSGTDFTLTISSLQPEDFATYYCQQYNSYPLTFGGGAKVEIK
Gas6 binding to A431 cells: Maximal binding in presence of AXL antibodies (% of binding in presence of control antibody) mean (s.d.) [2]: 113 (6) %
Antibody binding to A431 cells: EC50 in presence of Gas6 (µg/mL) mean (s.d.) (AXL on A431 cells): 0.30 (0.31) µg/mL
Antibody binding to A431 cells: Maximal binding in presence of Gas6 (% of binding in absence of Gas6) mean (s.d.) (AXL on A431 cells): 93 (15) %
Antibody binding to A431 cells: EC50 w/o Gas6 (µg/mL) mean (s.d.) (AXL on A431 cells): 0.12 (0.11) µg/mL
Binding affinity (OCTET) Kdis [4]: 0.0039 s⁻¹
Binding affinity (OCTET) Kon [4]: 170000 M⁻¹ s⁻¹

B5: IgG1-AXL-140: AXL-specific human IgG1,κ antibody, VH SEQ ID NO:3, VL SEQ ID NO:4 (antibody, listed as Homo sapiens, V domains shown)
VH: EVQLLESGGGLVQPGGSLRLSCAASGFTFSSYAMTWVRQAPGKGLEWVSAISISGASTFYADSVKGRFTISRDNSKNTLSLQMNSLRAEDTAVYFCRGYSGYVYDAFDIWGQGTMVTVSS
VL: DIQMTQSPSSLSASVGDRVTITCRASQGISNWLAWYQQKPEKAPKSLIYAASSLQSGVPSRFSGSGSGTDFTLTISSLQPEDFATYYCQQYNSYPLTFGGGTKVEIK
Maximal binding (Arbitrary units) [6]: 2889 Arbitrary units

B6: IgG1-AXL-726-vcMMAE (conjugate)
VH: QVQLQQWGAGLLKPSETLSLTCAIDGGSFSGYYWSWIRQPPGKGLEWIGEISHSGRTNYNPSLKSRVTISIDTSKNQFSLKLSSVAAADTAVYYCARFITMIRGAIITHFDYWGQGALVTVSS
VL: DIQMTQSPSSLSASVGDRVTITCRASQGISSWLAWYQQKPEKAPKSLIYAASSLQSGVPSRFSGSGSGTDFTLTISSLQPEDFATYYCQQYHSYPYTFGQGTKLEIK
anti-tumor activity in the LCLC-103H xenograft model [5]: tumor regression
anti-tumor activity in the A431 xenograft model (A431 tumors): growth inhibition

B7: IgG1-AXL-187: AXL-specific human IgG1,κ antibody, VH SEQ ID NO:19, VL SEQ ID NO:20 (antibody, listed as Homo sapiens, V domains shown)
VH: QVPLQQWGAGLLKPSETLSLTCAVYGGSFSGYHWSWIRQPPGKGLEWIGEISHSGRTNYNPSLKSRVTISIDTSKNQFSLKLSSVTAADTAVYYCASFITMIRGTIITHFDYWGQGTLVTVSS
VL: DIQMTQSPSSLSASVGDRVTITCRASQGISSWLAWYQQKPEKAPKSLIYAASSLQSGVPSRFSGSGSGTDFTLTISSLQPEDFATYYCQQYHSYPYTFGQGTKLEIK
Maximal binding (Arbitrary units) [6]: 2563 Arbitrary units
